Data: article PMC4095729 (Alzheimer's Research & Therapy, 2014)

Molecular target: T1, Aβ1-7 peptide (Homo sapiens (deposited entity))
T1 construct: amyloid beta peptide (Aβ), cut from amyloid precursor protein (APP), residues 1-7; Additional file 1 names the peptide Aβ1-6; also called amyloid-β1-7; Aβ residues 1–7
T1 chain: DAEFRHD
Assay: crystal structure; 3D6 Fab co-crystallised with Aβ1-7 or Aβ1-40 peptide, crystals grown at 22 °C; the Aβ1-40 crystals in 200 mM Zn2+; data at 100 K
Details: both partners purified

- binding result: binds
B1: Recombinant 3D6 Fab (Fab, V domains shown)
VH: EVKLVESGGGLVKPGASLKLSCAASGFTFSNYGMSWVRQNSDKRLEWVASIRSGGGRTYYSDNVKGRFTISRENAKNTLYLQMSSLKSEDTALYYCVRYDHYSGSSDYWGQGTTVTVSS
VL: not shown
notes: also called Fab 3D6
